Measured values reported in publication PMC4188415.

Tests used:
Test in all cases: ITC
[1] = molecular target: KPNA1 in a 1:1 complex with eVP24 (human | Ebola virus) (UniProt P52294)
[2] = molecular target: KPNA5 in a 1:1 complex with eVP24 (competition ITC) (human | Ebola virus) (UniProt O15131)
[3] = molecular target: ΔIBB-KPNA5 (66-509) (human)

Chain of UniProt O15131 (O15131 whole entry, chain 1 of 2): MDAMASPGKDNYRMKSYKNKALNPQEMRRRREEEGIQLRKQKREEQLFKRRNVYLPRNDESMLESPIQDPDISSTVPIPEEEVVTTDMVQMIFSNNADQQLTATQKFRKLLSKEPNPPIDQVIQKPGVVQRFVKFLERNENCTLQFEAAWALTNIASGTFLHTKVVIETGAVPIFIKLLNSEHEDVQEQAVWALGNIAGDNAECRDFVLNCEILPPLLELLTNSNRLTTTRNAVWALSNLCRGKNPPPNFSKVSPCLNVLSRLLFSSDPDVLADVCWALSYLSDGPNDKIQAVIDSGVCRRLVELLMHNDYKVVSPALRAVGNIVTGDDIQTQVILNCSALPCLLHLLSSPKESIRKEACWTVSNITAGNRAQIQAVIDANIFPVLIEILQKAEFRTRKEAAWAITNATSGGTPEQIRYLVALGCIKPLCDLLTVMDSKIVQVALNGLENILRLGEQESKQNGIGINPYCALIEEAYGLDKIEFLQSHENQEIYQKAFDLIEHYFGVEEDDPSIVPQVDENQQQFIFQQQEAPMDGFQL
Chain of UniProt O15131 (Q05322 whole entry, chain 2 of 2, further chain): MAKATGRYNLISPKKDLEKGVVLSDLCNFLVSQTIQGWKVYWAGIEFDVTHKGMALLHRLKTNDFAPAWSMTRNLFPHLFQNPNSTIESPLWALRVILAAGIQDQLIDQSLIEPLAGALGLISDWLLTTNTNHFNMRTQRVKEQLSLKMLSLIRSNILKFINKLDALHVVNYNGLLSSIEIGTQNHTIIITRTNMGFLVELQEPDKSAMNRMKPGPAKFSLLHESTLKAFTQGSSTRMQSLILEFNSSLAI
Chain of UniProt P52294 (P52294 whole entry, chain 1 of 2): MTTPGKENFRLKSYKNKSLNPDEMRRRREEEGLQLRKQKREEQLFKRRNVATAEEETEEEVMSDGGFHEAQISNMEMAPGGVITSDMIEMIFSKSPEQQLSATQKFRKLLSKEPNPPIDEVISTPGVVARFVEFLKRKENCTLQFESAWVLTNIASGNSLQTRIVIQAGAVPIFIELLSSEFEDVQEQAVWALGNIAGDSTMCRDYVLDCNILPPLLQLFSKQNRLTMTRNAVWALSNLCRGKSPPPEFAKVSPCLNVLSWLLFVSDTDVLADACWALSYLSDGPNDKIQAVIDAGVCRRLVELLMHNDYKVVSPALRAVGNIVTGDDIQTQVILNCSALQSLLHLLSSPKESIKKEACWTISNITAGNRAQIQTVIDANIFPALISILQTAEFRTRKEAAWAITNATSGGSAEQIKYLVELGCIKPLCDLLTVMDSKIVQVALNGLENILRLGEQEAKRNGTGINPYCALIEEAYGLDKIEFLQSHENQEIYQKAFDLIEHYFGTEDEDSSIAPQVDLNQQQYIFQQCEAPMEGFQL
Chain of UniProt P52294 (Q05322 whole entry, chain 2 of 2, further chain): as the sequence (Q05322 whole entry, chain 2 of 2, further chain) above

Substance nucleoplasmin peptide (bipartite cNLS) has a fold difference in binding against KPNA1 without eVP24 [1] of 2 fold and a fold difference in binding against KPNA5 without eVP24 [2] of 2 fold.

In the case of “MBP-tagged eVP24 (residues 11-237) (from UniProt Q05322 11-237) (domain or fragment)”, the Kd [3] is reported as 1 to 10 nM.
